Assay results reported in publication PMC11267843, “Transcription factor binding specificities of the oomycete Phytophthora infestans reflect conserved and divergent evolutionary patterns and predict function”.

Assays:
PITG_04701 HSF = PITG_04701 HSF (Phytophthora infestans, UniProt D0N1U7 1-190); assay: EMSA; conditions: protein: recombinant, tags: 6xHis, GST (N- or C-terminal, per PBM vectors), chain copies: 3, blunt
PITG_08807 2R-Myb = PITG_08807 2R-Myb (Phytophthora infestans, UniProt D0ND89 1-188); assay: EMSA; self-competition with unlabeled DNA; conditions: protein: recombinant; tags: 6xHis; GST (N- or C-terminal, per PBM vectors); label: Cy5 (probe); blunt

B1: HSF three-site (dsDNA)
DNA 1: TAAATATAGCACGCGAATATTCTAGAAACTGCAGCACAACA
DNA 2: TGTTGTGCTGCAGTTTCTAGAATATTCGCGTGCTATATTTA
B1: binds (PITG_04701 HSF; label: Cy5).

B2: HSF two-site (wild-type motif) (dsDNA)
DNA 1: TAAATATAGCACGCTTCTAGAAACTGCAGCACAACA
DNA 2: TGTTGTGCTGCAGTTTCTAGAAGCGTGCTATATTTA
B2: binds (PITG_04701 HSF; label: Cy5 (probe)).

B3: Myb wild-type motif (dsDNA)
DNA 1: CTACACTATCATTCTCCGTTACGTCCTACTGTATTGG
DNA 2: CCAATACAGTAGGACGTAACGGAGAATGATAGTGTAG
B3: binds (PITG_08807 2R-Myb).
